Data as given in FireProtDB (doi:10.1021/bi002609i).

Conditions: Dictyostelium discoideum, reversible: yes
[1] = pH 5.59, 20 °C, Thermal, DSC, MES/NaMES 50 mM
[2] = pH 5.7, 20 °C, Urea, CD, KH2PO4/K2HPO4 50 mM
[3] = pH 5.7, 20 °C, Urea, CD, MES 50 mM
[4] = pH 5.7, 20 °C, Urea, Fluorescence, MES 50 mM
[5] = pH 5.75, 20 °C, Thermal, DSC, MES/NaMES 50 mM
[6] = pH 5.81, 20 °C, Thermal, DSC, MES/NaMES 50 mM
[7] = pH 6.03, 20 °C, Thermal, DSC, MES/NaMES 50 mM
[8] = pH 6.09, 20 °C, Thermal, DSC, MES/NaMES 50 mM
[9] = pH 6.2, 20 °C, Urea, Fluorescence, MES 50 mM, NaCl 400 mM
[10] = pH 6.2, 20 °C, Urea, Fluorescence, MES 50 mM
[11] = pH 6.25, 20 °C, Thermal, DSC, MES/NaMES 50 mM
[12] = pH 6.7, 20 °C, Urea, CD, KH2PO4/K2HPO4 50 mM
[13] = pH 6.7, 20 °C, Urea, Fluorescence, KH2PO4/K2HPO4 50 mM
[14] = pH 7.08, 5 °C, Urea, Fluorescence, KH2PO4/K2HPO4 50 mM
[15] = pH 7.7, 20 °C, Urea, CD, KH2PO4/K2HPO4 50 mM
[16] = pH 7.7, 20 °C, Urea, Fluorescence, KH2PO4/K2HPO4 50 mM
[17] = pH 8.15, 20 °C, Urea, Fluorescence, KH2PO4/K2HPO4 50 mM
[18] = pH 8.7, 20 °C, Urea, CD, Glycine/sodium glycine 50 mM
[19] = pH 8.7, 20 °C, Urea, Fluorescence, Glycine/sodium glycine 50 mM
[20] = pH 9.7, 20 °C, Urea, CD, Glycine/sodium glycine 50 mM
[21] = pH 9.7, 20 °C, Urea, Fluorescence, Glycine/sodium glycine 50 mM

Chain of Hisactophilin-1 wild type (P13231 whole entry, looked up): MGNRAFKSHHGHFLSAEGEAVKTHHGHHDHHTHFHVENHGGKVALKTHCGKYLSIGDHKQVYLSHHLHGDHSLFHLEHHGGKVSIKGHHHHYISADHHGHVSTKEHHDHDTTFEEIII

Hisactophilin-1 wild type (from UniProt P13231)
heat capacity change of unfolding [1]: 2.4 kcal/mol/K | unfolding free energy [1]: 1.5 kcal/mol | Tm (pH 5.59, Thermal, DSC, MES/NaMES 50 mM): 47 °C | denaturant m value [2]: 2.24 kcal/mol/M | denaturant midpoint (higher = more stable) [2]: 1.02 M | unfolding free energy [2]: 2.28 kcal/mol | denaturant m value [3]: 2.19 kcal/mol/M | denaturant midpoint (higher = more stable) [3]: 1.05 M | unfolding free energy [3]: 2.2 kcal/mol | denaturant m value [4]: 2.2 kcal/mol/M | denaturant midpoint (higher = more stable) [4]: 0.99 M | unfolding free energy [4]: 2.18 kcal/mol | heat capacity change of unfolding [5]: 2.4 kcal/mol/K | unfolding free energy [5]: 1.4 kcal/mol | Tm (pH 5.75, Thermal, DSC, MES/NaMES 50 mM): 48.9 °C | heat capacity change of unfolding [6]: 2.4 kcal/mol/K | unfolding free energy [6]: 2.1 kcal/mol | Tm (pH 5.81, Thermal, DSC, MES/NaMES 50 mM): 53.6 °C | heat capacity change of unfolding [7]: 2.4 kcal/mol/K | unfolding free energy [7]: 2.8 kcal/mol | Tm (pH 6.03, Thermal, DSC, MES/NaMES 50 mM): 58.3 °C | heat capacity change of unfolding [8]: 2.4 kcal/mol/K | unfolding free energy [8]: 4.1 kcal/mol | Tm (pH 6.09, Thermal, DSC, MES/NaMES 50 mM): 58.7 °C | denaturant m value [9]: 2.56 kcal/mol/M | denaturant midpoint (higher = more stable) [9]: 1.39 M | unfolding free energy [9]: 3.56 kcal/mol | denaturant m value [10]: 2.39 kcal/mol/M | denaturant midpoint (higher = more stable) [10]: 2.23 M | unfolding free energy [10]: 5.33 kcal/mol | heat capacity change of unfolding [11]: 2.4 kcal/mol/K | unfolding free energy [11]: 3.8 kcal/mol | Tm (pH 6.25, Thermal, DSC, MES/NaMES 50 mM): 61.7 °C | denaturant m value [12]: 1.63 kcal/mol/M | denaturant midpoint (higher = more stable) [12]: 3.1 M | unfolding free energy [12]: 5.04 kcal/mol | denaturant m value [13]: 1.62 kcal/mol/M | denaturant midpoint (higher = more stable) [13]: 3.08 M | unfolding free energy [13]: 5.1 kcal/mol | denaturant m value [14]: 1.67 kcal/mol/M | denaturant midpoint (higher = more stable) [14]: 2 M | unfolding free energy [14]: 3.34 kcal/mol | denaturant m value [15]: 1.63 kcal/mol/M | denaturant midpoint (higher = more stable) [15]: 4.31 M | unfolding free energy [15]: 7.11 kcal/mol | denaturant m value [16]: 1.59 kcal/mol/M | denaturant midpoint (higher = more stable) [16]: 4.26 M | unfolding free energy [16]: 6.78 kcal/mol | denaturant m value [17]: 1.65 kcal/mol/M | denaturant midpoint (higher = more stable) [17]: 4.61 M | unfolding free energy [17]: 7.59 kcal/mol | denaturant m value [18]: 1.46 kcal/mol/M | denaturant midpoint (higher = more stable) [18]: 5.18 M | unfolding free energy [18]: 7.55 kcal/mol | denaturant m value [19]: 1.49 kcal/mol/M | denaturant midpoint (higher = more stable) [19]: 5.19 M | unfolding free energy [19]: 7.75 kcal/mol | denaturant m value [20]: 1.53 kcal/mol/M | denaturant midpoint (higher = more stable) [20]: 4.58 M | unfolding free energy [20]: 7.03 kcal/mol | denaturant m value [21]: 1.65 kcal/mol/M | denaturant midpoint (higher = more stable) [21]: 4.76 M | unfolding free energy [21]: 7.85 kcal/mol
